Measurements from patent US20100260668A1 (published 2010).

Target: T1, DLL4 (DLL ECD His tag, R&D 1506-D4-050) (UniProt Q9NR61 27-529)
T1 construct: extracellular domain; bought
Assay: BIACORE (SPR), DVD-Ig against DLL4

B1: DVD468 (bispecific antibody, human IgG1, kappa)
heavy: not shown
light: DIQMTQSPSSLSASVGDRVTITCRASQVIRRSLAWYQQKPGKAPKLLIYAASNLASGVPSRFSGSGSGTDFTLTISSLQPEDFATYYCQQSNTSPLTFGQGTKVEIKRTVAAPDIQMTQSPSSLSASVGDRVTITCRASQDVSTAVAWYQQKPGKAPKLLIYSASFLYSGVPSRFSGSGSGTDFTLTISSLQPEDFATTYYCQQSYTGTVTFGQGTKVEIKRTVAAPSVFIFPPSDEQLKSGTASVVCLLNNFYPREAKVQWKVDNALQSGNSQESVTEQDSKDSTYSLSSTLTLSKADYEKHKVYACEVTHQGLSSPVTKSFNRGEC
notes: DVD-Ig; N-term; VD VEGF (AB071), C-term; VD DLL4 (AB015); HC linker short, LC linker short; also called DVD-Ig DVD468; DVD468H
Kd: 3.76 nM
koff: 0.000219 s⁻¹
kon: 58200 M⁻¹ s⁻¹

B2: DVD445 (bispecific antibody, human IgG1, kappa)
heavy: not shown
light: DIVMTQSPDSLAVSLGERATISCRASESVDNYGISFMKWFQQKPGQPPKLLIYAASNQGSGVPDRFSGSGSGTDFTLTISSLQAEDVAVYYCQQSKEVPWTFGGGTKVEIKRTVAAPDIQMTQSPSSLSASVGDRVTITCRASQVIRRSLAWYQQKPGKAPKLLIYAASNLASGVPSRFSGSGSGTDFTLTISSLQPEDFATYYCQQSNTSPLTFGQGTKVEIKRTVAAPSVFIFPPSDEQLKSGTASVVCLLNNFYPREAKVQWKVDNALQSGNSQESVTEQDSKDSTYSLSSTLTLSKADYEKHKVYACEVTHQGLSSPVTKSFNRGEC
notes: DVD-Ig; N-term; VD DLL4 (AB069), C-term; VD VEGF (AB071); HC linker short, LC linker short; also called DVD-Ig DVD445; DVD445H
Kd: 5.01 nM
koff: 0.000646 s⁻¹
kon: 129000 M⁻¹ s⁻¹

B3: DVD457 (bispecific antibody, human IgG1, kappa, L234A L235A)
heavy: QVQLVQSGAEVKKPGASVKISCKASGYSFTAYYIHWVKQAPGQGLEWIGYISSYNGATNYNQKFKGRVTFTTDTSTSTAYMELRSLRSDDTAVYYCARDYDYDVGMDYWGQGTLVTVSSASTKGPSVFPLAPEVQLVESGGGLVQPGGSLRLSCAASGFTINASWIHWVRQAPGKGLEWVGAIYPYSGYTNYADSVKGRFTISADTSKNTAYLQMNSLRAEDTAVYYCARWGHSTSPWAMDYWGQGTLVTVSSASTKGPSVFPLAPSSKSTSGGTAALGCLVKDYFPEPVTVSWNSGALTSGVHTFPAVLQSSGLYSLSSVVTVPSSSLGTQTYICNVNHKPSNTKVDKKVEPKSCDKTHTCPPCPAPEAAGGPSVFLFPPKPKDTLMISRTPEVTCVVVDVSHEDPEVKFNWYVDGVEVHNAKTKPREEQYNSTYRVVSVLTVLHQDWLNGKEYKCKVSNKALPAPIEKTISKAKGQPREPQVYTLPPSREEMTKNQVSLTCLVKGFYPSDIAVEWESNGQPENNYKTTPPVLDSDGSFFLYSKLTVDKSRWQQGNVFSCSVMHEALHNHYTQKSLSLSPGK
light: DIVMTQSPDSLAVSLGERATISCRASESVDNYGISFMKWFQQKPGQPPKLLIYAASNQGSGVPDRFSGSGSGTDFTLTISSLQAEDVAVYYCQQSKEVPWTFGGGTKVEIKRTVAAPDIQMTQSPSSLSASVGDRVTITCRASQVIRRSLAWYQQKPGKAPKLLIYAASNLASGVPSRFSGSGSGTDFTLTISSLQPEDFATYYCQQSNTSPLTFGQGTKVEIKRTVAAPSVFIFPPSDEQLKSGTASVVCLLNNFYPREAKVQWKVDNALQSGNSQESVTEQDSKDSTYSLSSTLTLSKADYEKHKVYACEVTHQGLSSPVTKSFNRGEC
notes: DVD-Ig; N-term; VD DLL4 (AB069), C-term; VD VEGF (AB071); HC linker long, LC linker short; also called DVD-Ig DVD457; DVD457H
Kd: 4.82 nM
koff: 0.000578 s⁻¹
kon: 120000 M⁻¹ s⁻¹

B4: DVD451 (bispecific antibody, human IgG1, kappa, L234A L235A)
heavy: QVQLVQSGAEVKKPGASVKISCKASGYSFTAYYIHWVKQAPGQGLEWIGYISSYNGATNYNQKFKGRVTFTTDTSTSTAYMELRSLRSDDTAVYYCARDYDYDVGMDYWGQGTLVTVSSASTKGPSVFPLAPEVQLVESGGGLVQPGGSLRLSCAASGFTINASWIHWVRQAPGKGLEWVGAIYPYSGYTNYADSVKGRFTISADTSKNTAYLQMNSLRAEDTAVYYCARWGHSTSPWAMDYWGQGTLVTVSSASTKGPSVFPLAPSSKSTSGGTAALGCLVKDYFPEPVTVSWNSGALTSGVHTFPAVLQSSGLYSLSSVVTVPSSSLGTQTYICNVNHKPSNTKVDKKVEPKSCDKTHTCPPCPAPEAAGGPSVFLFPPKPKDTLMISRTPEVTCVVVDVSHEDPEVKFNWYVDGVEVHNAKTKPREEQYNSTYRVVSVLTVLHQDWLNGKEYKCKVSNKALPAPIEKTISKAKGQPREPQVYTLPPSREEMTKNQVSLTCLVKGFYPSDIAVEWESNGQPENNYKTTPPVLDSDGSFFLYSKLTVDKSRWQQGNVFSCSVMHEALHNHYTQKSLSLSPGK
light: DIVMTQSPDSLAVSLGERATISCRASESVDNYGISFMKWFQQKPGQPPKLLIYAASNQGSGVPDRFSGSGSGTDFTLTISSLQAEDVAVYYCQQSKEVPWTFGGGTKVEIKRTVAAPSVFIFPPDIQMTQSPSSLSASVGDRVTITCRASQVIRRSLAWYQQKPGKAPKLLIYAASNLASGVPSRFSGSGSGTDFTLTISSLQPEDFATYYCQQSNTSPLTFGQGTKVEIKRTVAAPSVFIFPPSDEQLKSGTASVVCLLNNFYPREAKVQWKVDNALQSGNSQESVTEQDSKDSTYSLSSTLTLSKADYEKHKVYACEVTHQGLSSPVTKSFNRGEC
notes: DVD-Ig; N-term; VD DLL4 (AB069), C-term; VD VEGF (AB071); HC linker long, LC linker long; also called DVD-Ig DVD451; DVD451H
Kd: 14 nM
koff: 0.001 s⁻¹
kon: 71700 M⁻¹ s⁻¹

B5: DVD463 (bispecific antibody, human IgG1, kappa)
heavy: not shown
light: DIVMTQSPDSLAVSLGERATISCRASESVDNYGISFMKWFQQKPGQPPKLLIYAASNQGSGVPDRFSGSGSGTDFTLTISSLQAEDVAVYYCQQSKEVPWTFGGGTKVEIKRTVAAPSVFIFPPDIQMTQSPSSLSASVGDRVTITCRASQVIRRSLAWYQQKPGKAPKLLIYAASNLASGVPSRFSGSGSGTDFTLTISSLQPEDFATYYCQQSNTSPLTFGQGTKVEIKRTVAAPSVFIFPPSDEQLKSGTASVVCLLNNFYPREAKVQWKVDNALQSGNSQESVTEQDSKDSTYSLSSTLTLSKADYEKHKVYACEVTHQGLSSPVTKSFNRGEC
notes: DVD-Ig; N-term; VD DLL4 (AB069), C-term; VD VEGF (AB071); HC linker short, LC linker long; also called DVD-Ig DVD463; DVD463H
Kd: 3.82 nM
koff: 0.000472 s⁻¹
kon: 123000 M⁻¹ s⁻¹

B6: DVD485 (bispecific antibody, human IgG1, kappa)
heavy: not shown
light: DIQMTQSPSSLSASVGDRVTITCRASQDVSTAVAWYQQKPGKAPKLLIYSASFLYSGVPSRFSGSGSGTDFTLTISSLQPEDFATTYYCQQSYTGTVTFGQGTKVEIKRTVAAPSVFIFPPDIQMTQSPSSLSASVGDRVTITCRASQVIRRSLAWYQQKPGKAPKLLIYAASNLASGVPSRFSGSGSGTDFTLTISSLQPEDFATYYCQQSNTSPLTFGQGTKVEIKRTVAAPSVFIFPPSDEQLKSGTASVVCLLNNFYPREAKVQWKVDNALQSGNSQESVTEQDSKDSTYSLSSTLTLSKADYEKHKVYACEVTHQGLSSPVTKSFNRGEC
notes: DVD-Ig; N-term; VD DLL4 (AB015), C-term; VD VEGF (AB071); HC linker short, LC linker long; also called DVD-Ig DVD485; DVD485H
Kd: 1.16 nM

B7: DVD521 (bispecific antibody, human IgG1, kappa, lambda, L234A L235A)
heavy: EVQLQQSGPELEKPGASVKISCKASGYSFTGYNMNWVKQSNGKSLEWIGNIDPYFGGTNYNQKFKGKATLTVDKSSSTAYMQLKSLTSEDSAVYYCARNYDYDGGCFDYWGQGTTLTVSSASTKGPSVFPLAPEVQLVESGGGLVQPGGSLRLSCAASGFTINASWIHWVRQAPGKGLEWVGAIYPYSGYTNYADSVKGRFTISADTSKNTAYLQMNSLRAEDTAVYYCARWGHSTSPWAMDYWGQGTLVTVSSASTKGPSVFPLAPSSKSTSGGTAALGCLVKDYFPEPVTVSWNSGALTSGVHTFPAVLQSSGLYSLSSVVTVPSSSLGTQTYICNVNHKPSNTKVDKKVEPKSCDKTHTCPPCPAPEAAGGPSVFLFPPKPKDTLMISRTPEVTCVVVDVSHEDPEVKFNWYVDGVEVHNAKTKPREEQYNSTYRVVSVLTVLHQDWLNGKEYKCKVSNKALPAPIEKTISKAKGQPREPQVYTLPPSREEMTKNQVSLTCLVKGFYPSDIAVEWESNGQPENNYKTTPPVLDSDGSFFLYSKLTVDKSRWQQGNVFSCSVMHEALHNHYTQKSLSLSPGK
light: QAVVTQESALTTSPGETVTLTCRSSTGAVTTSNYANWVQEKPDHLFTGLIGGTNNRAPGVPARFSGSLIGDKAALTITGAQTEDEAIYFCALWYSNHWVFGGGTKLTVLGQPKAAPSVTLFPPDIQMTQSPSSLSASVGDRVTITCRASQVIRRSLAWYQQKPGKAPKLLIYAASNLASGVPSRFSGSGSGTDFTLTISSLQPEDFATYYCQQSNTSPLTFGQGTKVEIKRTVAAPSVFIFPPSDEQLKSGTASVVCLLNNFYPREAKVQWKVDNALQSGNSQESVTEQDSKDSTYSLSSTLTLSKADYEKHKVYACEVTHQGLSSPVTKSFNRGEC
notes: DVD-Ig; N-term; VD DLL4 (AB073), C-term; VD VEGF (AB071); HC linker long, LC linker long; also called DVD-Ig DVD521; DVD521H
Kd: 1.77 nM
koff: 0.00168 s⁻¹
kon: 947000 M⁻¹ s⁻¹

B8: DVD533 (bispecific antibody, human IgG1, kappa, lambda, L234A L235A)
heavy: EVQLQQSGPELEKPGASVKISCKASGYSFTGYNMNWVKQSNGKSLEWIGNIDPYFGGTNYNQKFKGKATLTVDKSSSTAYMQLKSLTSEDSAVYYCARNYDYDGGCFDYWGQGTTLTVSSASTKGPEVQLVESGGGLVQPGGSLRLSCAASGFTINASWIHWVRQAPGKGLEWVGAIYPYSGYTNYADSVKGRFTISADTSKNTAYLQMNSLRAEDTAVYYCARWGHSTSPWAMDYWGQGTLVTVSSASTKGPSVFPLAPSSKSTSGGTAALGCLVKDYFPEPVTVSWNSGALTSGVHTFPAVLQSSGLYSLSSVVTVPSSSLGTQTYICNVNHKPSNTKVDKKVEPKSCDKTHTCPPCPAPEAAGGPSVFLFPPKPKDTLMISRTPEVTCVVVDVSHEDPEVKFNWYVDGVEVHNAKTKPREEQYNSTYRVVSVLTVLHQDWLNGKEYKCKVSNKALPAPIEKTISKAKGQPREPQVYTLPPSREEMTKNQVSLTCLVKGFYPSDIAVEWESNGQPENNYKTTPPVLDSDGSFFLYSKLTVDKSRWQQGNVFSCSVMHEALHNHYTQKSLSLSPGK
light: QAVVTQESALTTSPGETVTLTCRSSTGAVTTSNYANWVQEKPDHLFTGLIGGTNNRAPGVPARFSGSLIGDKAALTITGAQTEDEAIYFCALWYSNHWVFGGGTKLTVLGQPKAAPSVTLFPPDIQMTQSPSSLSASVGDRVTITCRASQVIRRSLAWYQQKPGKAPKLLIYAASNLASGVPSRFSGSGSGTDFTLTISSLQPEDFATYYCQQSNTSPLTFGQGTKVEIKRTVAAPSVFIFPPSDEQLKSGTASVVCLLNNFYPREAKVQWKVDNALQSGNSQESVTEQDSKDSTYSLSSTLTLSKADYEKHKVYACEVTHQGLSSPVTKSFNRGEC
notes: DVD-Ig; N-term; VD DLL4 (AB073), C-term; VD VEGF (AB071); HC linker short, LC linker long; also called DVD-Ig DVD533; DVD533H
Kd: 2.22 nM
koff: 0.00133 s⁻¹
kon: 598000 M⁻¹ s⁻¹

B9: DVD515 (bispecific antibody, human IgG1, kappa)
heavy: not shown
light: QAVVTQESALTTSPGETVTLTCRSSTGAVTTSNYANWVQEKPDHLFTGLIGGTNNRAPGVPARFSGSLIGDKAALTITGAQTEDEAIYFCALWYSNHWVFGGGTKLTVLGQPKAAPDIQMTQSPSSLSASVGDRVTITCRASQVIRRSLAWYQQKPGKAPKLLIYAASNLASGVPSRFSGSGSGTDFTLTISSLQPEDFATYYCQQSNTSPLTFGQGTKVEIKRTVAAPSVFIFPPSDEQLKSGTASVVCLLNNFYPREAKVQWKVDNALQSGNSQESVTEQDSKDSTYSLSSTLTLSKADYEKHKVYACEVTHQGLSSPVTKSFNRGEC
notes: DVD-Ig; N-term; VD DLL4 (AB073), C-term; VD VEGF (AB071); HC linker short, LC linker short; also called DVD-Ig DVD515; DVD515H
Kd: 1.51 nM
koff: 0.0016 s⁻¹
kon: 1.06e+06 M⁻¹ s⁻¹

B10: DVD527 (bispecific antibody, human IgG1, kappa)
heavy: not shown
light: QAVVTQESALTTSPGETVTLTCRSSTGAVTTSNYANWVQEKPDHLFTGLIGGTNNRAPGVPARFSGSLIGDKAALTITGAQTEDEAIYFCALWYSNHWVFGGGTKLTVLGQPKAAPDIQMTQSPSSLSASVGDRVTITCRASQVIRRSLAWYQQKPGKAPKLLIYAASNLASGVPSRFSGSGSGTDFTLTISSLQPEDFATYYCQQSNTSPLTFGQGTKVEIKRTVAAPSVFIFPPSDEQLKSGTASVVCLLNNFYPREAKVQWKVDNALQSGNSQESVTEQDSKDSTYSLSSTLTLSKADYEKHKVYACEVTHQGLSSPVTKSFNRGEC
notes: DVD-Ig; N-term; VD DLL4 (AB073), C-term; VD VEGF (AB071); HC linker long, LC linker short; also called DVD-Ig DVD527; DVD527H
Kd: 1.9 nM
koff: 0.00109 s⁻¹
kon: 574000 M⁻¹ s⁻¹

B11: DVD497 (bispecific antibody, human IgG1, kappa)
heavy: not shown
light: DIQMTQSSSYLSVSLGGRVTITCKASDHINNWLAWYQQKPGNAPRLLISGATSLETGVPSRFSGSGSGKDYTLSITSLQTEDVATYYCQQYWSIPLTFGAGTKLELKRTVAAPSVFIFPPDIQMTQSPSSLSASVGDRVTITCRASQVIRRSLAWYQQKPGKAPKLLIYAASNLASGVPSRFSGSGSGTDFTLTISSLQPEDFATYYCQQSNTSPLTFGQGTKVEIKRTVAAPSVFIFPPSDEQLKSGTASVVCLLNNFYPREAKVQWKVDNALQSGNSQESVTEQDSKDSTYSLSSTLTLSKADYEKHKVYACEVTHQGLSSPVTKSFNRGEC
notes: DVD-Ig; N-term; VD DLL4 (AB072), C-term; VD VEGF (AB071); HC linker long, LC linker long; also called DVD-Ig DVD497; DVD497H
Kd: 0.266 nM
koff: 7.12e-05 s⁻¹
kon: 268000 M⁻¹ s⁻¹

B12: DVD509 (bispecific antibody, human IgG1, kappa)
heavy: not shown
light: DIQMTQSSSYLSVSLGGRVTITCKASDHINNWLAWYQQKPGNAPRLLISGATSLETGVPSRFSGSGSGKDYTLSITSLQTEDVATYYCQQYWSIPLTFGAGTKLELKRTVAAPSVFIFPPDIQMTQSPSSLSASVGDRVTITCRASQVIRRSLAWYQQKPGKAPKLLIYAASNLASGVPSRFSGSGSGTDFTLTISSLQPEDFATYYCQQSNTSPLTFGQGTKVEIKRTVAAPSVFIFPPSDEQLKSGTASVVCLLNNFYPREAKVQWKVDNALQSGNSQESVTEQDSKDSTYSLSSTLTLSKADYEKHKVYACEVTHQGLSSPVTKSFNRGEC
notes: DVD-Ig; N-term; VD DLL4 (AB072), C-term; VD VEGF (AB071); HC linker short, LC linker long; also called DVD-Ig DVD509; DVD509H
Kd: 0.153 nM
koff: 3.52e-05 s⁻¹
kon: 230000 M⁻¹ s⁻¹

B13: DVD491 (bispecific antibody, human IgG1, kappa)
heavy: not shown
light: DIQMTQSSSYLSVSLGGRVTITCKASDHINNWLAWYQQKPGNAPRLLISGATSLETGVPSRFSGSGSGKDYTLSITSLQTEDVATYYCQQYWSIPLTFGAGTKLELKRTVAAPDIQMTQSPSSLSASVGDRVTITCRASQVIRRSLAWYQQKPGKAPKLLIYAASNLASGVPSRFSGSGSGTDFTLTISSLQPEDFATYYCQQSNTSPLTFGQGTKVEIKRTVAAPSVFIFPPSDEQLKSGTASVVCLLNNFYPREAKVQWKVDNALQSGNSQESVTEQDSKDSTYSLSSTLTLSKADYEKHKVYACEVTHQGLSSPVTKSFNRGEC
notes: DVD-Ig; N-term; VD DLL4 (AB072), C-term; VD VEGF (AB071); HC linker short, LC linker short; also called DVD-Ig DVD491; DVD491H
Kd: 0.237 nM
koff: 6.35e-05 s⁻¹
kon: 267000 M⁻¹ s⁻¹

B14: DVD503 (bispecific antibody, human IgG1, kappa)
heavy: not shown
light: DIQMTQSSSYLSVSLGGRVTITCKASDHINNWLAWYQQKPGNAPRLLISGATSLETGVPSRFSGSGSGKDYTLSITSLQTEDVATYYCQQYWSIPLTFGAGTKLELKRTVAAPDIQMTQSPSSLSASVGDRVTITCRASQVIRRSLAWYQQKPGKAPKLLIYAASNLASGVPSRFSGSGSGTDFTLTISSLQPEDFATYYCQQSNTSPLTFGQGTKVEIKRTVAAPSVFIFPPSDEQLKSGTASVVCLLNNFYPREAKVQWKVDNALQSGNSQESVTEQDSKDSTYSLSSTLTLSKADYEKHKVYACEVTHQGLSSPVTKSFNRGEC
notes: DVD-Ig; N-term; VD DLL4 (AB072), C-term; VD VEGF (AB071); HC linker long, LC linker short; also called DVD-Ig DVD503; DVD503H
Kd: 0.192 nM
koff: 4.72e-05 s⁻¹
kon: 246000 M⁻¹ s⁻¹
